# T1: human CDH6 on tumor cells (OVCAR3 cells, PA-1 cells) (human, UniProt P55285 54-790)
# T1 sequence: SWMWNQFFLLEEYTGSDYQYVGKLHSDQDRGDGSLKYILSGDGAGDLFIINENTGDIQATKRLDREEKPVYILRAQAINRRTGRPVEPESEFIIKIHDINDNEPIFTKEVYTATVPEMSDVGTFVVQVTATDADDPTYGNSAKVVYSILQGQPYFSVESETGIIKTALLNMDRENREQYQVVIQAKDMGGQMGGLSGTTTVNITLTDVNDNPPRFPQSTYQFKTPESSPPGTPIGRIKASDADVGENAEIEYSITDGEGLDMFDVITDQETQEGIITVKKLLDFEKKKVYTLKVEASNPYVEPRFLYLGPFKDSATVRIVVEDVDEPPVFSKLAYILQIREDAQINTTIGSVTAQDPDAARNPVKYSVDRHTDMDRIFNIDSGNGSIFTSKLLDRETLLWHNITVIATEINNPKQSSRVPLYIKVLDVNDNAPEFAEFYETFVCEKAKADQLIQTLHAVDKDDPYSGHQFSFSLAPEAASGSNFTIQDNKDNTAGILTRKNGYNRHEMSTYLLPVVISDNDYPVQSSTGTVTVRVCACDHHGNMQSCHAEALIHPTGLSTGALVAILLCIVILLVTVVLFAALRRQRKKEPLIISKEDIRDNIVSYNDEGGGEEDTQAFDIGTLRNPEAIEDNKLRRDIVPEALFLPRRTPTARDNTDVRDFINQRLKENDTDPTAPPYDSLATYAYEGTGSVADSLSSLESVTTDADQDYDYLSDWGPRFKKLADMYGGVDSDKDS
# B1: NOV0712 (antibody, human IgG1, kappa, V domains shown)
# VH: QVQLLESGGGLVQPGGSLRLSCAASGFTFSSHGMHWVRQAPGKGLEWVSVISGSGSNTGYADSVKGRFTISRDNSKNTLYLQMNSLRAEDTAVYYCARQWGSYAFDSWGQGTLVTVSS
# VL: DIQMTQSPSSLSASVGDRVTITCRASQSISSYLNWYQQKPGKAPKLLIYAVSTLQSGVPSRFSGSGSGTDFTLTISSLQPEDFATYYCQQSGTFPPTTFGQGTKVEIKR
# notes: Positive control, variable regions from WO2018212136A1; also called positive control anti-human CDH6 antibody
# Legend:
# [1] = molecular target: T1, human CDH6 on tumor cells (OVCAR3 …); assay: FACS, OVCAR3 cells, 4° C. arm of endocytosis assay, antibody diluted to 10 µg/mL
# Method: OVCAR3 cells were cultured until a confluence of 90% was reached, the medium was removed by pipetting, the cells were washed once with PBS, and then treated with an enzyme-free cell dissociation solution (Versene, purchased from Gibco, Cat. No. 15040-066) and the cells were collected. The cells were washed once with PBS, counted, resuspended to 2×10⁶ cells/mL in an FACS buffer (PBS+2% FBS), and then added to two 96-well plates at 50 μL/well. The chimeric antibodies were diluted with FACS buffer (PBS+2% FBS) to 10 μg/mL and separately added to the two 96-well plates at 50 μL/well, and the plates were incubated at 4° C. for 1 h. After the cells were washed 3 times with PBS, the cells were resuspended in an FACS buffer. One 96-well plate was incubated at 4° C. for 1 h, and the other 96-well plate was incubated at 37° C. for 1 h. […] After the plates were centrifuged and washed 2 times with PBS, the cells were resuspended in an FACS buffer. The mean fluorescence intensity (MFI) was measured using FACS Canton II (BD). The chimeric antibodies tested all had good endocytic activity.
# [2] = molecular target: T1, human CDH6 on tumor cells (OVCAR3 …); assay: FACS, OVCAR3 cells
# Method: OVCAR3 cells with high expression of CDH6 and PA-1 cells with moderate expression of CDH6 were used to detect the binding activity of the antibodies to the cells. […] The cells were washed once with PBS, counted, resuspended to 2×10⁶ cells/mL in an FACS buffer (PBS+2% FBS), and then added to a 96-well plate at 50 μL/well. The chimeric antibodies were diluted with FACS buffer (PBS+2% FBS) and added to the 96-well plate at 50 μL/well, and the plate was incubated at 4° C. for 1 h. […] The dilution was added to the 96-well plate at 50 μL/well, and the plate was incubated at 4° C. for 1 h. After the plates were centrifuged and washed 2 times with PBS, the cells were resuspended in an FACS buffer. The mean fluorescence intensity (MFI) was measured using FACS Canton II (BD). Analysis was performed by the GraphPad Prism software, data were fitted, and EC50 values were calculated. The chimeric antibodies tested had strong binding to both OVCAR3 cells and PA-1 cells.
binder,measurement,setting,value
B1,MFI_4° C.,[1],6520 MFI
same,EC50,[2],1.92 nM
same,Max MFI,[2],11500 MFI

# Source: patent publication US20260234242A1 (HAINAN SIMCERE ZAIMING PHARMACEUTICAL, published 2026)
